Changes are numbered by the printed parent chain.
B1: VG9B191 (antibody, human IgG1, lambda, V domains shown)
VH: EVQLVQSGGGLVKPGGSLRLSCAASGFTFSRYSMNWVRQAPGKGLEGVSSISSSSSYIYYADSVKGRFTISRDNAKNSLYLQMNSLRAEDTAVYYCARDGPTVNWDYYFDLWGRGTLVTVSS
VL: QSVLTQPPSVSAAPGQKVTISCSGSSSNIGNNYVSWYQQLPGTAPKLLIYDNNKRPSGIPDRFSGSKSGTSATLGITGLQTGDEADYYCGTWDSSLSTSVVFGGGTKLTVLG
B2: VG9B44 (antibody, human IgG1, kappa, V domains shown)
VH: QVQLQQSGPGLVKPSQTLSLTCAISGDSVSSNSAAWNWIRQSPSRGLEWLGRTYYRSKWYNDYPISVKSRISINPDTSKNQFSLQLNSVTPEDTAVYYCARESGSYYTDGFDIWGQGTMVTVSS
VL: DIQMTQSPSFLSASVGDRVTITCRASQGISSYLAWYQQKPGKAPKLLIYAASTLQSGVPSRFSGSGSGTEFTLTISSLQPEDFATYYCQEFNSYPYTFGQGTKLEIKR
B3: VG9B32 (antibody, human IgG1, kappa, V domains shown)
VH: EVQLVQSGGDLLQPGGSLRLSCAASGFTFSRYAMNWVRQAPGKGLEWVSFISGTGYTVYYADSVKGRFTISRDNAKNSLYLQMNSLRDEDTAVYYCARDQEPGFDYWGQGTLVTVSS
VL: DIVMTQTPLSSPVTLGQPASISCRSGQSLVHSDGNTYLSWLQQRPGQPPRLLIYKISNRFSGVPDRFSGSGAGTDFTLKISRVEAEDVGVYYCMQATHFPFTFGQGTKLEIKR
B4: VG9B128 (antibody, human IgG1, kappa, V domains shown)
VH: EVQLVESGGGVVQPGKSLRLSCTASGFTFGTYGMHWVRQAPGKGLDWVAVIWYNGSNKYYADSVKGRFTISRDNSKNTLYLQMNSLRTEDTAVYYCARGGFGESFDSWGQGTLVTVSS
VL: DIVMTQTPATLSLSPGERATLSCRASQSVIDYLAWFQQKPGQAPRLLIYDASNRATGIPARFSGSGSGTDFTLTISSLEPEDFAVYYCQQRSNWPLTFGGGTKVEIKR
B5: VG9B403 (antibody, human IgG1, kappa)
heavy: not shown
light: DIVMTQSPGTLSLSPGDRATLSCRASQSVASSYLAWYQQKPGQSPRLLIYGASSRATGIPDRFSGSGSGTDFTLTISRLEPEDFAVYYCQQYGSSPPYTFGQGTKVEIKRTVAAPSVFIFPPSDEQLKSGTASVVCLLNNFYPREAKVQWKVDNALQSGNSQESVTEQDSKDSTYSLSSTLTLSKADYEKHKVYACEVTHQGLSSPVTKSFNRGEC
B6: VG9B137 (antibody, human IgG1, kappa, V domains shown)
VH: EVQLVESGGGLVKPGGSLRLSCAAFGITFSSYSMDWVRQAPGRGLEWVSSIGSSSSYIFYADSVKGRFTISRDNAKNSLYLQMNSLRAEDTAVYYCATSYSWNYGGAFDIWGQGTMVTVSS
VL: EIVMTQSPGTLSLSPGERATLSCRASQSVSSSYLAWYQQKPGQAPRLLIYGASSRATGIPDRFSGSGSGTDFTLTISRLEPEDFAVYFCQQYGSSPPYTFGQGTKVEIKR
B7: VG9B162 (antibody, human IgG1, lambda, V domains shown)
VH: QVQLVESGAEVTKPGASVKVSCKASGYTFTGDYMHWVRQAPGQGLEWMGWINPNSGYTNYAQKFQGRVTMTRDTSISTAYMELSRLRSDDTAVYYCAREGDAFDVWGQGTMVTVSS
VL: QLVLTQSSSASGSPGQSVTISCTGTSSDVGGYNYVSWYQQHPGKAPKLMIYEVSKRPSGVPDRFSGSKSGNTASLTVSGLQAEDEADYYCNSYAGSNNFEVFGGGTKLTVLG
B8: VG9B409 (antibody, human IgG1, kappa, V domains shown)
VH: EVQLVESGAEVKKPGASVKVSCKASGYTLTSYYMHWVRQAPGQGLEWMGIINPSGGSTSYAQKFQGRVTMTRDTSTSTVYMELSSLRSEDTAVYYCARGSYGWYFDLWGRGTLVTVSS
VL: EIVLTQSPGTLSLSPGERATLSCRASQSVTSSYLAWYQQKPGQTPRLLIYGASSRATGIPDRISGSGSGTDFTLTVSRLEPEDFAVYYCQQYGSSPPYTFGQGTKLEIKR
B9: VG9B36 (antibody, human IgG1, kappa, V domains shown)
VH: QVQLVESGGGLVKPGGSLRLSCASSGFTFSSYGMYWVRQAPGKGLEWVSSISTGSSYIYYADSVKGRFTISRDNAKNSLYLQMNSLRAEDTAVYYCARDKGLAVTGYIMDVWGQGTTVTVSS
VL: EIVLTQSPSSLSASVGDRVTITCQASQDISNYLNWYQQKPGKAPKLLIYDASNLETGVPSRFSGSGSGTDFTFTISSLQPEDIAIYYCQQYDNLPMYTFGQGTKVEIKR
B10: VG9B57 (antibody, human IgG1, kappa, V domains shown)
VH: EVQLVESGGGLVKPGGSLRLSCAASGFTFSSHDMNWVRQAPGKGLGWVSSISSSSSYIFYADSVKGRFTISRDNAKNSLYLQMSSLRAEDTAVYYCARDLGVGVRDYYYYGMDVWGQGTMVTVSS
VL: DIQMTQSPSAMSASVGDRVTITCRASQDITNYLAWFQQKPGKVPKRLIYAASSLQGGVPSRFSGSGSGTEFTLTISSLQPEDFSTYYCLQHDTYPYTFGQGTKLEIKR
B11: VG9B60 (antibody, human IgG1, kappa, V domains shown)
VH: QVQLVQSGAEVKKPGASVKVSCKASGYTFTGYYMHWVRQAPGQGLEWMGRINPNSGVTHYAQKFQGRVTMTRDTSISTAYMELSRLRSDDTAVYYCARGGSLVRGVISGLDYWGQGTTVTVSS
VL: DIVMTQSPGTLSLSPGERATLSCRASQSFSGSYLAWYQQKPGQAPSLLIYGASSRATGIPDRFSGSGSGTDFTLTISRLEPEDFALYYCQQYGSSPPYTFGQGTKVEIKR
B12: VG9B64 (antibody, human IgG1, kappa, V domains shown)
VH: QVQLVESGPTLVKPTQTLTLTCTFSGFSLSISGVSVGWIRQPPGKALEWLALIYWNDDKRYSPSLQSRVTITKDTSKNQVVLTVTNMDSVDTATYYCVHSGQWLEGDAFDIWGQGTMVTVSS
VL: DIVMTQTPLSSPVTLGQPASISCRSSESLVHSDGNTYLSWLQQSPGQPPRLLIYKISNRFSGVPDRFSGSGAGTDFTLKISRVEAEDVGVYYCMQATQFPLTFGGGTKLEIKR
B13: VG9B135 (antibody, human IgG1, kappa, V domains shown)
VH: QVTLKESGPTLVTPSQTLTLTCTFSGFSLTTYGVGVGWIRQPPGKALEWLALIYWNDDKRYYPSLNNRLTITKDTSKHLVVLTLTNMDPVDTATYYCAHDYDFWSGYFDYWGQGTLVTVSS
VL: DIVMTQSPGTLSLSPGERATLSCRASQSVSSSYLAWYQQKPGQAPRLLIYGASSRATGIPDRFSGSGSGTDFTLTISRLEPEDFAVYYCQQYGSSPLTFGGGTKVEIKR
B14: VG9B402 (antibody, human IgG1, kappa)
heavy: not shown
light: DIQMTQSPSSVSASVGDRVTITCRASQGINSWLAWYQQKPGNAPKLLIYAASSLQSGVPSRFSGIGSGTDFIFTISSLQPEDFASYYCQQANSFPWTFGQGTKVDIKRTVAAPSVFIFPPSDEQLKSGTASVVCLLNNFYPREAKVQWKVDNALQSGNSQESVTEQDSKDSTYSLSSTLTLSKADYEKHKVYACEVTHQGLSSPVTKSFNRGEC
B15: VG9B33 (antibody, human IgG1, kappa, V domains shown)
VH: EVQLVESGGGLVKPGGSLRLSCAASGFTFSSYNMNWVRQAPGKGLEWVSSISTSSSYIYYADSVKGRFTISRDNAKNSLYLQMNGLRAEDTAVYYCARDTSVTKYPDTFDIWGQGTMVTVSS
VL: DIVMTQSPSSLSASVGDRVTITCRASQDINNYLAWFQQKPGKVPNLLIYGASTLQSGVPSRFTGSGSGTDFTLTISSLQPEDVATYYCQKYNSAPFTFGPGTKVDIKR
B16: VG9B67 (antibody, human IgG1, kappa, V domains shown)
VH: EVQLVESGGGLVKPGGSLRLSCAASGFTFSSYTMNWVRQAPGKGLEWVSSISSSSSYIDYAESVKGRFTISRDNAKNSLYLQMNSLRAEDTAVYYCARDGDILATIRGSFDYWGQGTTVTVSS
VL: DIVMTQTPLSLPVTPGEPASISCRSSQSLLDSDAGNTYLDWYLQKPGQSPQLLIYTLSYRASGVPDRFSGSGSGTDFTLKISRVEAEDVAIYYCMQRIEFPITFGQGTKVEIKR
B17: VG9B66 (antibody, human IgG1, kappa, V domains shown)
VH: B16 VH with S31T, S56F, I58M, E62D, Y80S, Q82L, L103V, T118M
VL: EIVLTQSPSSLSTSVGDRVTITCRASQDITNFLAWYQQKPGKLPKLLIYTASTLQSGVPSRFSGSASGPDFTLTISSLQPEDVATYYCQKYNSAPFTFGPGTKVEIKR
B18: VG9B127 (antibody, human IgG1, kappa, V domains shown)
VH: B16 VH with E1Q, A23T, S30G, S31A, Y60F, N84I, L103V, A104S, T117A, T118L
VL: B16 VL with D1E, T7S, A34D, A90G
B19: VG9B152 (antibody, human IgG1, lambda, V domains shown)
VH: EVQLVESGGGLVRPGGSLRLSCEASGFTFSSYSMIWVRQAPGKGLEWVSSISSSSDYIYNADSVKGRFTISRDNAKNSLYLQMNSLRAEDTAVYYCARDWELLGFDCWGQGTTVTVSS
VL: SYELMQPPSVSVSPGQTASITCSGDKLGDKYACWYQQKPGQSPVLVIYQHNKRPSGIPERFSGSNSGKTATLTISGTQAMDEADYYCQAWDSTTVVFGGGTKLTVLG
B20: VG9B21 (antibody, human IgG1, kappa, V domains shown)
VH: EVQLLESGGGLVKPGGSLRLSCAASGFSFSNYDMNWVRQAPRKGLEWVSSISSSSHYIYYADSLKGRFTISRDNAKNSLFLQMNSLRAEDTAVYYCARDRGVTTDYYYYALDVWGQGTMVTVSS
VL: DIVMTQSPSSLSASVGDRVTITCRASQGIYNYLAWYQQKPGNVPKLLIYAASTLQSGVPSRFSGSGSGTDFSLTISSLQPEDFTTYYCQKYNRAPFTFGPGTKVDIKR

What follows are binders tested against T1, γδ T cell receptor on human γδ T cells (human) (assay: flow cytometry, dose-response binding at 37° C. on human γδ T cells).
T1 construct: Mixed population of primary cells; also called AG000003021 (γδ T cells)
Experimental: Binding of antibodies to human γδ T cells or SKW cell lines expressing Vγ9/Vδ2, Vγ9/Vδ2 or Vγ5/Vδ2 was carried out by flow cytometry. Briefly, the cells were centrifuged at 300×g for 5 minutes and the pellet was resuspended in 34 ml fresh media (in RPMI+10% FBS). 50 μL of the cells were then plated (44K cells/well) into assay plates. Samples were incubated for one hour at 37° C. in tissue culture (TC) incubator followed by wash steps by adding 100 μl FACS staining buffer. Secondary detention antibodies (A647 conjugated anti-human IgG Fc specific antibody (2 μg/mL) along with AF488 anti mouse CD3, clone OKT3 at 1 ug/mL) were added at 50 μL/well to appropriate wells according to the plate map. After incubating for 60 minutes at 37° C. in the TC incubator, cells were again washed as described above. This is followed by resuspension in 20 μL/well running buffer containing 1:1000 dilution of Sytox blue dead cell stain and the plates were run on iQue Screener.
Gating and data analysis: Human anti-human Vγ9 antibody (VG9B2 mAb at 10 nM) was used to mark the gating of positive population. All cells were first gated for singlets on SCS-A vs. SCS-H dot plot, live/dead followed by CD3 positive population, and this subset of CD3 positive population was gated for Vγ9 positive binding using positive control mAb. Cells were also assessed for cell binding of control mAbs by RL1 (A647) Geomeans from the live cell population. Advanced metrics were used and normalization metrics were chosen to calculate fold over background wells containing secondary antibody alone (designated as ‘background’ within ForeCyt settings).

| Max. Activity | Binder |
| --- | --- |
| 2370 fold over background | B1 |
| 2320 fold over background | B2 |
| 1210 fold over background | B3 |
| 1480 fold over background | B4 |
| 2390 fold over background | B5 |
| 2200 fold over background | B6 |
| 1860 fold over background | B7 |
| 411 fold over background | B8 |
| 2410 fold over background | B9 |
| 1210 fold over background | B10 |
| 567 fold over background | B11 |
| 1690 fold over background | B12 |
| 577 fold over background | B13 |
| 2250 fold over background | B14 |
| 2090 fold over background | B15 |
| 2270 fold over background | B16 |
| 1220 fold over background | B17 |
| 2230 fold over background | B18 |
| 1850 fold over background | B19 |
| 1670 fold over background | B20 |
